Measurements from paper PMC3605417, “An Archaeal Homolog of Proteasome Assembly Factor Functions as a Proteasome Activator” (PLoS ONE, 2013).
One block for each binder: values may come before it.

B1: His6-PbaB, Pyrococcus furiosus (natural protein, UniProt Q8U1R3 1-280, looked up)
chain: MEEGGTRNREEGKMKETTIVVYERPDIYDPIFIEGLPGIGLVGKLAAEHLIQELKAKKFAELYSPHFMHQVLIRKNSVVELMKNEFYYWKSPDDEHRDLIIVTGDTQVPPTDSYGHFEVAGKMLDFVQEFGTREIITMGGYQVPEIQGEPRVLAAVTHEDLIEYYKSKLEGCSVEVIWREDEGGAIVGAAGLLLGIGKLRGMFGISLLGESLGYIVDAKAAKAVLSAVTKILGLEIDMTALDERAKETEEILRKVEEMQRAMMEQVTPKLPHEEEDRGYL
notes: PbaB, Pyrococcus furiosus, locus PF1142, residues 1-280; pET-28b (NdeI/XhoI); Used in SPR (immobilised), ultracentrifugation, electron tomography and the chaperone assay; also called His6-tagged PbaB; PF1142; source: E. coli BL21(DE3), purified (Ni2+-chelating Sepharose, HiTrap Q HP, Superdex 200); not shown: His6, N-terminal, kept

Experiments:
[1] = biological target: the molecule itself; test: AUC; sedimentation velocity, 20 μM His6-tagged PbaA or PbaB, 150 mM sodium phosphate (pH 7.5), 100 mM NaCl, 38,000 rpm, 20°C; continuous c(s) distribution (SEDFIT)
[2] = biological target: T1, His6-tagged wild-type 20S proteasome (αβ1 form), Pyrococcus furiosus (Pyrococcus furiosus, UniProt Q8U0L6 1-260; Q8U4C9 1-196); test: cell-based or functional assay
T1 sequence (looked up) 1: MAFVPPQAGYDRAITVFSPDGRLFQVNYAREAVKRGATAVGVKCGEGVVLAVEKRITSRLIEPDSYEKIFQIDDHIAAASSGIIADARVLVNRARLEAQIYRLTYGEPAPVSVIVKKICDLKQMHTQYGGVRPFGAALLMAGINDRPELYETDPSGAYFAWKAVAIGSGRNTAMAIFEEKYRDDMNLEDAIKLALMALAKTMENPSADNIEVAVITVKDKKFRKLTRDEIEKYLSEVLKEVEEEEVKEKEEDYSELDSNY
T1 sequence (looked up) 2: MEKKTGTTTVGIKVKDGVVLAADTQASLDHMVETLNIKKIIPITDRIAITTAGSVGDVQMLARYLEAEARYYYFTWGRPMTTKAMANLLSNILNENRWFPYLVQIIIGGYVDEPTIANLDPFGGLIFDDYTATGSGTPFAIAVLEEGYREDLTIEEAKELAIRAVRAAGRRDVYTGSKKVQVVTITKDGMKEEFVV

[3] = biological target: T2, immature 20S proteasome retaining the β subunit propeptide, inactive mutant (α + β1^T7A), Pyrococcus furiosus (Pyrococcus furiosus, UniProt Q8U0L6 1-260; Q8U4C9 1-196, T7A); test: SPR; Biacore T100, Sensor Chip NTA, 25°C; His6-tagged PbaB (wild type or CΔ3) immobilised; non-tagged mature (18.8-300 nM) or immature (18.5-296 nM) 20S proteasome or α subunit ring (15.4-246 nM) injected; 10 mM HEPES (pH 7.5), 150 mM NaCl, 0.05% Tween20; 10 μl/min; settings: both partners purified
T2 construct: proteasome α subunit PsmA, Pyrococcus furiosus, locus PF1571, residues 1-260; proteasome β subunit 1 PsmB1 with its propeptide, Pyrococcus furiosus, locus PF0159, residues 1-196; non-tagged version; source: E. coli BL21(DE3), co-expressed, purified (heat precipitation at 85°C, HiTrap Q HP, Sephacryl S-400); copies: 14 + 14
T2 sequence (looked up) 1: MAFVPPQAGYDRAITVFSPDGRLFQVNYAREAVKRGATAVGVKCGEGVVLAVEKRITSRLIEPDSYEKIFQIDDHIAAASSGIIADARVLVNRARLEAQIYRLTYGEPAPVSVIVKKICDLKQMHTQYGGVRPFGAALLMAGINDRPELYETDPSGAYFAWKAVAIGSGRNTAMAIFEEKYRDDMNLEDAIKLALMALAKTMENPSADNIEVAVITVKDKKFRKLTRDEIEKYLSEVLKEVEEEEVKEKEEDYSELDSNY
T2 sequence (looked up) 2: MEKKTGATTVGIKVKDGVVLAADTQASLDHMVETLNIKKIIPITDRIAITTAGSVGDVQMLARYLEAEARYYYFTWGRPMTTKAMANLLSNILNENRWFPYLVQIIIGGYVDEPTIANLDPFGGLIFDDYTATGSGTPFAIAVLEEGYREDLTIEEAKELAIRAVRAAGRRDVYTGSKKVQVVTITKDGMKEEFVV

[4] = biological target: T3, non-tagged mature 20S proteasome, inactive mutant (α + β1^NΔ6/T7A), Pyrococcus furiosus (Pyrococcus furiosus, UniProt Q8U0L6 1-260; Q8U4C9 7-196, T7A); test: as above; settings: both partners purified
T3 construct: proteasome α subunit PsmA, Pyrococcus furiosus, locus PF1571, residues 1-260; proteasome β subunit 1 PsmB1, Pyrococcus furiosus, locus PF0159 (residues 1-196); NΔ6: the six N-terminal (propeptide) residues removed; non-tagged version; source: E. coli BL21(DE3), co-expressed, purified (heat precipitation at 85°C, HiTrap Q HP, Sephacryl S-400); copies: 14 + 14
T3 sequence (looked up) 1: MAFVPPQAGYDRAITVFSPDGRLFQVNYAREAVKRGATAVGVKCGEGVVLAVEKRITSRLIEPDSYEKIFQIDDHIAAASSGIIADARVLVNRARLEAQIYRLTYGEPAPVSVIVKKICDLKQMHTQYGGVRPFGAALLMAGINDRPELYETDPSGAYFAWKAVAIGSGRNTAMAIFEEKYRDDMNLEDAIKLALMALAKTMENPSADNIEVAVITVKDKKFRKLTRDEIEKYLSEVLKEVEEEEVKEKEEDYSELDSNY
T3 sequence (looked up) 2: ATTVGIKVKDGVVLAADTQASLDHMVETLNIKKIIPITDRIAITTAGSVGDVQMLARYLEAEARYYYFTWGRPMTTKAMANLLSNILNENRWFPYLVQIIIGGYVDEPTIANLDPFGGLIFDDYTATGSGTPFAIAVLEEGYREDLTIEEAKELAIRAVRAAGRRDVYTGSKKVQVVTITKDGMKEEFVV

[5] = biological target: the molecule itself; test: crystal structure; non-tagged PbaB, 2.20 Å, space group C222(1), four molecules per asymmetric unit; 10% PEG10000, 100 mM Bis-Tris (pH 5.0), 50 mM sodium acetate, 5 mM NaAuCl4, 20°C
[6] = biological target: B1; test: SPR; Biacore T100, Sensor Chip NTA, 25°C; His6-tagged PbaB (wild type or CΔ3) immobilised; non-tagged mature (18.8-300 nM) or immature (18.5-296 nM) 20S proteasome or α subunit ring (15.4-246 nM) injected; 10 mM HEPES (pH 7.5), 150 mM NaCl, 0.05% Tween20; 10 μl/min; settings: both partners purified

Binder: B1
stoichiometry N [1]: 4
proteasomal degradation of human α-synuclein (18 μM) by 35 nM wild-type 20S proteasome with 105 nM PbaB, 95°C; fold acceleration by PbaB [2]: ~2.5 fold
proteasomal degradation of the fluorogenic nonapeptide LFP (10 μM) by 35 nM wild-type 20S proteasome with 175 nM PbaB, 45°C; fold acceleration by PbaB [2]: ~3 fold
Kd [3]: 21 nM
Kd [4]: 7.8 nM

B2: PbaB (non-tagged), Pyrococcus furiosus (natural protein, UniProt Q8U1R3 1-280, looked up)
chain: MEEGGTRNREEGKMKETTIVVYERPDIYDPIFIEGLPGIGLVGKLAAEHLIQELKAKKFAELYSPHFMHQVLIRKNSVVELMKNEFYYWKSPDDEHRDLIIVTGDTQVPPTDSYGHFEVAGKMLDFVQEFGTREIITMGGYQVPEIQGEPRVLAAVTHEDLIEYYKSKLEGCSVEVIWREDEGGAIVGAAGLLLGIGKLRGMFGISLLGESLGYIVDAKAAKAVLSAVTKILGLEIDMTALDERAKETEEILRKVEEMQRAMMEQVTPKLPHEEEDRGYL
notes: PbaB, Pyrococcus furiosus, locus PF1142, residues 1-280; Homotetramer in the crystal and by ultracentrifugation; Cloned into NdeI/XhoI of pET-28b; also called non-tagged PbaB; PF1142; source: E. coli BL21(DE3), purified (Ni2+-chelating Sepharose, thrombin cleavage of the His6-tag, HiTrap Q HP, Superdex 200); not shown: His6, N-terminal, cleaved
stoichiometry N [5]: 4

B3: His6-PbaA, Pyrococcus furiosus (natural protein, UniProt Q8U4Q9 1-242, looked up)
chain: MEEKKPVNLVLPEVENAIFIEGYPGVGLVGHIAANFLAKELDMDLIGYVDSLFIPPMSLILEGRPTPPLRFYGKNNIIIAIADIFLPPTLVNEIAKEIVNYLKKVNAEKVISLAGMGIGFFKDTFEVWGIGGSEEENKELESLGVKILKYGSITGMSGKLLWEASRAGLKSYVLLGETFGDRPDPRAAANVVEVLNKMLGLNVSVEPLLKEAEMIEEQLRRMHEQMEEARRKMERQYETMYL
notes: PbaA, Pyrococcus furiosus, locus PF0015, residues 1-242; pET-28b (NdeI/XhoI); Pentamer in solution by sedimentation velocity; also called His6-tagged PbaA; PF0015; source: E. coli BL21(DE3), purified (Ni2+-chelating Sepharose, HiTrap Q HP, Superdex 200); not shown: His6, N-terminal, kept
stoichiometry N [1]: 5

Kd [6]: 330 nM
B4: non-tagged double homoheptameric ring of the proteasome α subunit, Pyrococcus furiosus (complex, UniProt Q8U0L6 1-260, looked up)
chain: MAFVPPQAGYDRAITVFSPDGRLFQVNYAREAVKRGATAVGVKCGEGVVLAVEKRITSRLIEPDSYEKIFQIDDHIAAASSGIIADARVLVNRARLEAQIYRLTYGEPAPVSVIVKKICDLKQMHTQYGGVRPFGAALLMAGINDRPELYETDPSGAYFAWKAVAIGSGRNTAMAIFEEKYRDDMNLEDAIKLALMALAKTMENPSADNIEVAVITVKDKKFRKLTRDEIEKYLSEVLKEVEEEEVKEKEEDYSELDSNY
notes: proteasome α subunit PsmA, Pyrococcus furiosus, locus PF1571, residues 1-260; also called α subunit ring; source: E. coli BL21(DE3), purified (same procedure as the non-tagged 20S proteasome mutants); copies: 14
